Test results published in the supplement of paper PMC9732359.
± gives the uncertainty stated by the source.

Test: protein stability index of a GFP-peptide fusion (yeast GPS) (PSI 1-4); higher = more stable; sorted into four equal gates, so the index is relative within each strain
Method in brief: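 Plasmids in a pooled yeast library fused tiled 17-residue yeast protein peptides downstream of GFP and also expressed Cherry. Mid-log cultures grown without leucine were sorted into four equal gates by GFP/Cherry fluorescence ratio. Each gate's plasmids were PCR-amplified and Illumina-sequenced, and reads were matched to strains by barcodes. The protein stability index is derived by multiplying each gate's read frequency by its gate number and summing the results.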

Sequence	protein stability index (doa10∆)	protein stability index (pdr5∆)	protein stability index (san1∆)	protein stability index (ubr1∆)
QGKHTKFENDELAESTT [LRP1]	3.75 ± 0.23	2.88 ± 0.12	3.12 ± 0.079	3.21 ± 0.077
QGNYVTEDIREGDQAEV [YMR129W/POM152]	3.49 ± 0.086	3.32 ± 0.073	3.3 ± 0.066	3.39 ± 0.083
QGRFRGNLSGKRVDFSG [RPO31]	3.36 ± 0.099	2.12 ± 0.11	2.76 ± 0.1	2.56 ± 0.12
QGRRLGESIMSEEPTDF [MCD1]	3.21 ± 0.11	3.36 ± 0.13	3.32 ± 0.069	3.23 ± 0.092
QGRRNSRNFSTRDEETT [SIR4]	3.04 ± 0.064	3.11 ± 0.055	3.12 ± 0.041	2.98 ± 0.041
QGVTCLHLAVGKKWFEV [NAS6]	2.76 ± 0.23	–	–	3.14 ± 0.14
QHPFPLAHSQHRCAIRS [SSN2]	1.76 ± 0.05	1.42 ± 0.042	1.51 ± 0.091	1.27 ± 0.034
QHTSFQEAVNSLKGYKI [CSI1]	3.15 ± 0.1	3.21 ± 0.065	3.35 ± 0.048	3.39 ± 0.067
QIAAQSPVELSRMFEEV [SMC1]	3.19 ± 0.14	3.2 ± 0.079	3.14 ± 0.058	3.27 ± 0.075
QIDQLNRLLPNLPEEER [GRR1]	2.62 ± 0.091	2.12 ± 0.064	2.05 ± 0.098	2.51 ± 0.083
QIFVRGSQIKFIVVPDL [SMD3]	1.8 ± 0.071	2.35 ± 0.06	2.05 ± 0.064	2.02 ± 0.066
QIILAYIKYNILLTSIS [SRP68]	1.29 ± 0.08	1.25 ± 0.074	1.12 ± 0.28	1.18 ± 0.15
QIILDRFAPDNQVTDSS [SIR3]	–	2.93 ± 0.13	2.94 ± 0.14	3.11 ± 0.098
QIIVTDGKLEPSTRSNF [YJL039C/NUP192]	2.38 ± 0.099	3.13 ± 0.13	2.88 ± 0.11	3.32 ± 0.18
QIKTLPEQYSDILLNER [AAR2]	2.96 ± 0.077	3.24 ± 0.06	3.14 ± 0.077	2.95 ± 0.072
QIMQNPTHYKIPAWFLN [RPS18A]	2.02 ± 0.072	1.99 ± 0.071	1.66 ± 0.084	1.6 ± 0.048
QIQFTPLIKKIKYEPRF [SMC3]	2.62 ± 0.061	2.52 ± 0.045	2.83 ± 0.09	2.43 ± 0.062
QIQKNVDLLQFPWLNAI [POP3]	2.29 ± 0.07	2.09 ± 0.073	3.32 ± 0.11	2.35 ± 0.06
QIRACKDLKHIIYYKFN [PRP8]	1.72 ± 0.037	1.73 ± 0.037	1.84 ± 0.056	1.59 ± 0.042
QISLNRLIDSMKQYSYL [RRI1]	2.43 ± 0.23	2.29 ± 0.16	2.48 ± 0.17	3.11 ± 0.12
QITKFPKYRDNLATWYH [SSN3]	2.77 ± 0.065	2.88 ± 0.077	2.7 ± 0.066	2.37 ± 0.041
QKDKSDTYKRFKYLLGV [ISW2]	1.59 ± 0.05	1.4 ± 0.062	1.4 ± 0.1	1.58 ± 0.048
QKEEGRSFTKAIEDAKK [YLR335W/NUP2]	3.1 ± 0.11	3.06 ± 0.085	3.05 ± 0.086	2.8 ± 0.069
QKLLKQLDSDANKLSKS [ISW2]	3.03 ± 0.048	2.89 ± 0.053	2.92 ± 0.047	2.98 ± 0.04
QKVSQLESADKQLEKRD [POP4]	3.26 ± 0.069	3.35 ± 0.083	3.27 ± 0.07	3.35 ± 0.077
QKYNLLHVLPTLNSRAL [SNM1]	1.45 ± 0.084	1.74 ± 0.078	1.27 ± 0.18	1.56 ± 0.11

Sequence	protein stability index (doa10∆)	protein stability index (pdr5∆)	protein stability index (san1∆)	protein stability index (ubr1∆)
QKYTKEMIDSHIKEASE [SNF2]	2.93 ± 0.06	2.88 ± 0.054	2.94 ± 0.051	3.02 ± 0.037
QLAPSSVDPQSSSTQNV [DIS3]	2.99 ± 0.084	3.21 ± 0.079	2.8 ± 0.081	2.63 ± 0.098
QLDGFSSDDRVKVLAAT [RPT5]	2.88 ± 0.16	2.83 ± 0.096	–	1.58 ± 0.12
QLEEDENITNKVTEKVL [CSI1]	3.2 ± 0.088	3.2 ± 0.09	3.33 ± 0.057	3.13 ± 0.055
QLEKKIRFVCLSNCLAN [BRR2]	1.82 ± 0.065	1.32 ± 0.048	1.31 ± 0.099	1.63 ± 0.045
QLENADTGTLDTKSVVG [RPN2]	3.09 ± 0.087	3.01 ± 0.082	3.08 ± 0.071	3.04 ± 0.075
QLESIYFRILLPYERHM [SWI1]	1.88 ± 0.055	1.83 ± 0.046	1.68 ± 0.067	1.9 ± 0.053
QLESYEYMVQYIDEMYN [RRI1]	2.74 ± 0.052	2.89 ± 0.075	3.27 ± 0.14	2.42 ± 0.071
QLGLQTVIRGNSIISLE [SMX2]	2.22 ± 0.093	2.57 ± 0.077	2.47 ± 0.07	2.25 ± 0.058
QLHFSLLDEEAEQSFDQ [RPO21]	2.51 ± 0.11	2.77 ± 0.14	3.29 ± 0.1	2.64 ± 0.22
QLIAKNVANVSGSTEKA [SIR3]	3.03 ± 0.085	3.04 ± 0.07	3.1 ± 0.054	2.88 ± 0.061
QLIPIILRQRGPGFKFV [SRB4]	2.55 ± 0.11	1.65 ± 0.073	1.47 ± 0.19	1.69 ± 0.078
QLISAVLVSMGSSNKAV [YJL039C/NUP192]	1.47 ± 0.23	1.69 ± 0.14	–	1.23 ± 0.084
QLKHTKLALAENDTNMN [SMC4]	3.13 ± 0.079	3.12 ± 0.097	3.25 ± 0.07	3.17 ± 0.048
QLLTPGSKISSNDLDKF [YGL172W/NUP49]	2.88 ± 0.19	2.85 ± 0.084	3.13 ± 0.1	2.54 ± 0.2
QLPVGFKNMGNTCYLNA [UBP6]	2.16 ± 0.073	1.76 ± 0.079	1.48 ± 0.12	1.6 ± 0.084
QLQKILESLKPIDDTMT [MTW1]	2.73 ± 0.072	2.86 ± 0.058	2.69 ± 0.052	2.59 ± 0.042
QMEDMEESINEFKSIEI [SMC4]	3.28 ± 0.13	3.4 ± 0.11	3.27 ± 0.049	2.93 ± 0.085
QMIELNRQICLVQKTVQ [GRR1]	3.03 ± 0.1	2.56 ± 0.055	2.5 ± 0.063	2.09 ± 0.055
QNAAANAEAKGLDATKL [RPL17A]	2.8 ± 0.28	3.39 ± 0.24	1.93 ± 0.25	–
QNFAEEDDSSNSCFSDG [REC8]	2.56 ± 0.15	2.59 ± 0.1	2.58 ± 0.12	3.33 ± 0.12
QNMQQSLQQMQHLQQLK [GAL11]	2.96 ± 0.095	2.95 ± 0.07	2.94 ± 0.074	2.89 ± 0.098
QNSSKIVNVLSKCLNLI [SWI3]	2.21 ± 0.057	1.98 ± 0.048	1.96 ± 0.093	1.31 ± 0.044
QNSYADKVTSQAVNNLI [RPP1]	1.82 ± 0.047	1.93 ± 0.09	1.68 ± 0.099	2.11 ± 0.068
QNVNVPSAFNFTGNNST [YOR098C/NUP1]	2.56 ± 0.049	2.89 ± 0.06	2.77 ± 0.037	2.84 ± 0.053
QPLFSTVPEYLKTADNR [PGD1]	2.79 ± 0.088	2.6 ± 0.099	2.87 ± 0.075	2.96 ± 0.057
